Results from publication PMC11078399.
Where a chain is given by its changes, count along the chain named. Numbers in names are those of the source.

Biological target: T1, Fzo1 (yeast mitofusin), wild type (S. cerevisiae) (UniProt P38297)
T1 sequence: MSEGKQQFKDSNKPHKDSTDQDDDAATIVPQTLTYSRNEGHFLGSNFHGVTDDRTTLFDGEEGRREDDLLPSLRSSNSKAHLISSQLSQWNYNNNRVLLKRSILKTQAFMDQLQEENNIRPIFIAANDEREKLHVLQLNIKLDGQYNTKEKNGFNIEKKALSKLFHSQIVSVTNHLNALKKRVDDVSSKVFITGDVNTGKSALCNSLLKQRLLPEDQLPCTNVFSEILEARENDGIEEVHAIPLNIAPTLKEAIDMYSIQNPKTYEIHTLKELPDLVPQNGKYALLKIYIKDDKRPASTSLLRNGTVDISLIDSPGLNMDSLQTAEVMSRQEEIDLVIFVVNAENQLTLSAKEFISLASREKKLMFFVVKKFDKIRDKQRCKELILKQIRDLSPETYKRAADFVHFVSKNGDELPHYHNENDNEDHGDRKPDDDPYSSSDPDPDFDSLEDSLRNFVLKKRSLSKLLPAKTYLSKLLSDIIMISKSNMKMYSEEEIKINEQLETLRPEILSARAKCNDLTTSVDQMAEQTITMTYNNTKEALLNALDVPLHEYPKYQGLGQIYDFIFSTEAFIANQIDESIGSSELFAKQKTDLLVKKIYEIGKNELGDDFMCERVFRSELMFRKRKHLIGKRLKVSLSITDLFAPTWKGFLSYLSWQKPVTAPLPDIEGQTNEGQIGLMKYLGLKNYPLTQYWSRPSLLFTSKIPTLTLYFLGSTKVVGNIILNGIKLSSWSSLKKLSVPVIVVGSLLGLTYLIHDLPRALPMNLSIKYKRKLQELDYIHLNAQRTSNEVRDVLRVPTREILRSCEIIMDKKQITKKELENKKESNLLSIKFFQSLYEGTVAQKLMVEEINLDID

ex vivo PerMit contact assay with mitochondria from pex34Δ cells: decrease of specific mitochondrial attachment to peroxisome beads with FZO1 S201N against WT FZO1 mitochondria: 17%
B1: Fzo1 S201N (GTPase domain mutant) (natural protein)
chain: T1 sequence with S201N
